Assay results as given in US20090163698A1, “Method for Preparing Antibody Conjugates” (priority 2007, published 2009).

Biological target: human αVβ3/5 integrin (human) (UniProt P06756)
Experiment: cell-based or functional assay
Set-up: IC50 of doxorubicin, cell viability, colon cancer HT29 cells, targeted liposomes 40:1 / IC50 of doxorubicin, cell viability, colon cancer HT29 cells, targeted liposomes 90:1 / IC50 of doxorubicin, cell viability, melanoma A375.S2 cells, targeted liposomes 40:1 / IC50 of doxorubicin, cell viability, melanoma A375.S2 cells, targeted liposomes 90:1 / IC50 of doxorubicin, cell viability, ovarian cancer A2780 cells, targeted liposomes 40:1 / IC50 of doxorubicin, cell viability, ovarian cancer A2780 cells, targeted liposomes 90:1: unit not given beside the values

Sequence of human αVβ3/5 integrin (human) (P06756 31-1048): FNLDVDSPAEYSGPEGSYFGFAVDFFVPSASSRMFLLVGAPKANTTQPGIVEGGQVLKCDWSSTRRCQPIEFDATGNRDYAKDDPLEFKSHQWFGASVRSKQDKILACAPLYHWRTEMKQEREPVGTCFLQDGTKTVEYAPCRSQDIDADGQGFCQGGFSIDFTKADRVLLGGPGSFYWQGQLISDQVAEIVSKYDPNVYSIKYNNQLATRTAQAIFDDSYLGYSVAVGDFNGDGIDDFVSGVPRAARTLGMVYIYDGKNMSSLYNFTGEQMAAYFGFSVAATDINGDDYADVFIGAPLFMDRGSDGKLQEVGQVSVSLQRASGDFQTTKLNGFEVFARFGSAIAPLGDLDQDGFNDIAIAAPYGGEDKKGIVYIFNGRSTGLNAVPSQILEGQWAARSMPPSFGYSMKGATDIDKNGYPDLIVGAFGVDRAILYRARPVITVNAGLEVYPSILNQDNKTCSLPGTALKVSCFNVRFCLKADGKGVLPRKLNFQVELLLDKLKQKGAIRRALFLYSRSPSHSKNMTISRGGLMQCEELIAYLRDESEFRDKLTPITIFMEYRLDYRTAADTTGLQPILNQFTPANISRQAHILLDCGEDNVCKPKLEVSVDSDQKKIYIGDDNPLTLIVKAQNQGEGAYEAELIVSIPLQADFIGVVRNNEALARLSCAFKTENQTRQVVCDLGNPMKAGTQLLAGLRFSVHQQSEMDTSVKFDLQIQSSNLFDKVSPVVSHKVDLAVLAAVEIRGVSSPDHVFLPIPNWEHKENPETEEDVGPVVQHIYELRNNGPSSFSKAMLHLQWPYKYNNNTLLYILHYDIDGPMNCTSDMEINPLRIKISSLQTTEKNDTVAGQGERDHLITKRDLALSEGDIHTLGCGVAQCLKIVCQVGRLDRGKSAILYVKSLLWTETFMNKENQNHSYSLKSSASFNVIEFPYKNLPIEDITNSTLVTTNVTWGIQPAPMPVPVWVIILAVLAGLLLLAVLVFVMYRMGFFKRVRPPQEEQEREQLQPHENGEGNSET

CNTO 95 Fab′ (anti-alpha-V Fab′ made by pepsin cleavage of the parent antibody, reduction and reoxidation), conjugated to MalPEG-DSPE on the surface of liposomes
IC50 of doxorubicin, cell viability, colon cancer HT29 cells, targeted liposomes 40:1: 180
IC50 of doxorubicin, cell viability, colon cancer HT29 cells, targeted liposomes 90:1: > 200
IC50 of doxorubicin, cell viability, melanoma A375.S2 cells, targeted liposomes 40:1: 15
IC50 of doxorubicin, cell viability, melanoma A375.S2 cells, targeted liposomes 90:1: 7
IC50 of doxorubicin, cell viability, ovarian cancer A2780 cells, targeted liposomes 40:1: 12
IC50 of doxorubicin, cell viability, ovarian cancer A2780 cells, targeted liposomes 90:1: 7
Increase (ratio of IC50 of liposome-entrapped doxorubicin to IC50 of 90:1 targeted liposomes), A375.S2 cells: 29 fold
Increase (ratio of IC50 of liposome-entrapped doxorubicin to IC50 of 90:1 targeted liposomes), A549 cells: 1 fold
Increase (ratio of IC50 of liposome-entrapped doxorubicin to IC50 of 90:1 targeted liposomes), A2780 cells: 29 fold
Increase (ratio of IC50 of liposome-entrapped doxorubicin to IC50 of 90:1 targeted liposomes), HT29 cells: 1.1 fold
Increase (ratio of IC50 of liposome-entrapped doxorubicin to IC50 of 90:1 targeted liposomes), MDA-MB-231 cells: 5 fold
